Source: patent publication US12662530 (SPHINGOTEC, dated 2026)
Where two headings read alike, the source gives them in different places. One block for each binder: values may come before it. Where no end group is shown, it is not given here.

What was measured:
Experiment in all cases: cell-based or functional assay
[1] = biological target: T1, Adrenomedullin 1-52-Gly (ADM-Gly) (human, not fully specified)
T1 peptide: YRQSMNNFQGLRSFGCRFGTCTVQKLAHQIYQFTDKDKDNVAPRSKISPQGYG

[2] = biological target: T2, human recombinant adrenomedullin receptor (CRLR+RAMP3) (human)
[3] = biological target: T2, human recombinant adrenomedullin …; remark: listed apart in the source

T2 sequence (Q16602 whole entry, chain 1 of 2): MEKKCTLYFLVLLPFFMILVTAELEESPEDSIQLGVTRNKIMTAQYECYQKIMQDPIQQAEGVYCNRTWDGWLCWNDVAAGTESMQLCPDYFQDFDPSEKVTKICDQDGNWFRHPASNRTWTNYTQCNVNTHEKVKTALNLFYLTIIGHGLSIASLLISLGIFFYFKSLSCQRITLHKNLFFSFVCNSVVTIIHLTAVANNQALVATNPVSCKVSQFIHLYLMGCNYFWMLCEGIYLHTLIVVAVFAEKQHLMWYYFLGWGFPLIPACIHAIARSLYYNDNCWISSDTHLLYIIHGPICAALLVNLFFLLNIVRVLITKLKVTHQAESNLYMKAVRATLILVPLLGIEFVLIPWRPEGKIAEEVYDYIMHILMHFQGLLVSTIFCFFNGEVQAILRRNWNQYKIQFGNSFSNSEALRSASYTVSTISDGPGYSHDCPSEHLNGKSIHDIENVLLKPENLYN
T2 sequence (O60896 whole entry, chain 2 of 2, further chain): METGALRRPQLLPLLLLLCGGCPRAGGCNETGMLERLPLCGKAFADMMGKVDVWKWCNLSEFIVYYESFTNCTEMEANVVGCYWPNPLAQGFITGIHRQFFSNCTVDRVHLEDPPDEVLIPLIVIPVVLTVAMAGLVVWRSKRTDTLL

formation of bio-ADM from ADM-Gly by native human plasma PAM after 90 minutes, with 300 µg/mL HAM8101 against without [1]: 4 fold
B1: HAM8101 (antibody, human IgG1, kappa, V domains shown)
VH: QVQLVQSGAEVKKPGSSVKVSCKASGYTFSRYWIEWVRQAPGQGLEWIGEILPGSGSTNYNQKFQGRVTITADTSTSTAYMELSSLRSEDTAVYYCTEGYEYDGFDYWGQGTTVTVSS
VL: DVVLTQSPLSLPVTLGQPASISCRSSQSIVYSNGNTYLEWYLQRPGQSPRLLIYRVSNRFSGVPDRFSGSGSGTDFTLKISRVEAEDVGVYYCFQGSHIPYTFGGGTKLEIKR

EC50 (read off the curve), cAMP stimulation [2]: ~1 nM
B2: mature human Adrenomedullin (Human ADM 1-52) (peptide)
peptide: YRQSMNNFQGLRSFGCRFGTCTVQKLAHQIYQFTDKDKDNVAPRSKISPQGY-NH2
modifications: ends and bridges not checked

EC50 (read off the curve), cAMP stimulation [3]: ~0.08 nM
Binder: YRQSMNQGSRSNGCRFGTCTFQKLAHQIYQLTDKDKDGMAPRNKISPQGY-NH2 (ends and bridges not checked) [Mouse ADM 1-50]
